# Experimental data published in article PMC12207370, “Macrocyclic Peptide Probes for Immunomodulatory Protein CD59: Potent Modulators of Bacterial Toxin Activity and Antibody‐Dependent Cytotoxicity” (Angewandte Chemie (International Ed. in English), 2025).
# Target: T1, biotinylated CD59 (Homo sapiens, UniProt P13987)
# T1 construct: Recombinant soluble human CD59 with an additional C-terminal cysteine residue
# T1 sequence (P13987 26-102 limits assumed): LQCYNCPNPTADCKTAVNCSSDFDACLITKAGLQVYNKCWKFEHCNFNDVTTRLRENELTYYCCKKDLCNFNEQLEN
# Assay: mRNA-display cyclic peptide screen against CD59-biotin, NGS abundance after 6th selection round
# Conditions: for Counts (raw counts for peptide sequence), Seq I: NGS sample Seq I; for Counts (raw counts for peptide sequence), Seq I / Counts (raw counts for peptide sequence), Seq II / Counts Seq I / Counts Seq II: sheet R6 (6th selection round); for Counts (raw counts for peptide sequence), Seq II: NGS sample Seq II; for Percentage of the pool, averaged across the two sequencing samples: average of Seq I and Seq II; for Percentage of the pool, averaged across the two sequencing samples / Percentage of the pool, Seq I / Percentage of the pool, Seq II / Percentage Seq I / Percentage Seq II / Percentage Average: sheet R6; for Percentage of the pool, Seq I: counts normalised by total counts of NGS sample Seq I; for Percentage of the pool, Seq II: counts normalised by total counts of NGS sample Seq II; for Percentage Seq I: counts normalised by total counts of sample Seq I; for Percentage Seq I / Percentage Seq II: percentage of the pool; for Percentage Seq II: counts normalised by total counts of sample Seq II; for Percentage Average: percentage of the pool averaged across the two sequencing samples; for Counts Seq I / Counts Seq II: raw NGS counts of peptide sequence; for Counts Seq I: sequencing sample Seq I; for Counts Seq II: sequencing sample Seq II
# In short: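 Peptide–mRNA fusions were made by in vitro translation with a customised PURE express kit. The kit lacked release factor 1 and methionine and was supplemented with […] initiator tRNA carrying N-chloroacetyl-d-tyrosine. Thioether macrocycles were formed, then enriched and amplified over iterative rounds on CD59-biotin immobilised on streptavidin beads. NGS read counts per sequence were recorded after the 6th selection round.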
Sequence,"Counts (raw counts for peptide sequence), Seq I","Counts (raw counts for peptide sequence), Seq II","Percentage of the pool, averaged across the two sequencing samples [%]","Percentage of the pool, Seq I [%]","Percentage of the pool, Seq II [%]",Percentage Seq I [%],Percentage Seq II [%],Percentage Average [%],Counts Seq I,Counts Seq II
WIRGNRDESLG,46,7,0.013,0.011,0.016,–,–,–,–,–
FVRGDLYSILG,50,6,0.013,0.011,0.014,–,–,–,–,–
FARGDLYSVLG,71,5,0.014,0.016,0.012,–,–,–,–,–
FIRGNSTSVLFLRQRQRQLGRGAE,–,–,–,–,–,0.060,0.072,0.066,264,31
HVRGDAWTVLG,–,–,–,–,–,0.243,0.216,0.230,1065,93
AVRGSSFYVWG,–,–,–,–,–,0.098,0.107,0.102,427,46
CFRYRLGLTST,–,–,–,–,–,0.062,0.058,0.060,271,25
LCYVKGSKNFT,–,–,–,–,–,0.088,0.095,0.092,385,41
CHGGRTFIYAWS,–,–,–,–,–,0.025,0.026,0.025,108,11
WSTGSSTFAAG,–,–,–,–,–,0.034,0.042,0.038,149,18
QWNRWYGMDEL,–,–,–,–,–,0.284,0.260,0.272,1243,112
SAWGNRKIQYY,55,5,0.012,0.013,0.012,–,–,–,–,–
CYTYRSLDPQSV,42,9,0.015,0.010,0.021,–,–,–,–,–
CYGGRTFVYAWS,–,–,–,–,–,0.103,0.104,0.104,450,45
VKYGNSNFVRE,–,–,–,–,–,0.047,0.060,0.054,207,26
CFQNRMAYGDI,34,7,0.012,0.008,0.016,–,–,–,–,–
STYNDFFRVPC,–,–,–,–,–,0.149,0.200,0.174,650,86
SVTGNRDHTRG,–,–,–,–,–,0.021,0.026,0.023,92,11
CPQLILRGWQ,–,–,–,–,–,0.030,0.044,0.037,133,19
CFNSRLHIGAV,–,–,–,–,–,0.041,0.058,0.050,181,25
GYLNECHTLYTL,–,–,–,–,–,0.024,0.028,0.026,105,12
NTAWGNVAVAYF,–,–,–,–,–,0.042,0.030,0.036,183,13
FVRGDLYSVIG,54,6,0.013,0.012,0.014,–,–,–,–,–
CFAARLSNGDS,–,–,–,–,–,0.319,0.362,0.341,1397,156

Sequence,"Counts (raw counts for peptide sequence), Seq I","Counts (raw counts for peptide sequence), Seq II","Percentage of the pool, averaged across the two sequencing samples [%]","Percentage of the pool, Seq I [%]","Percentage of the pool, Seq II [%]",Percentage Seq I [%],Percentage Seq II [%],Percentage Average [%],Counts Seq I,Counts Seq II
FVTGNREHTRG,–,–,–,–,–,0.025,0.035,0.030,110,15
ISWGNGSLAFY,–,–,–,–,–,0.147,0.116,0.132,643,50
WRDRFDQCVI,37,5,0.010,0.00846,0.012,–,–,–,–,–
CEALLRRGWD,–,–,–,–,–,0.094,0.079,0.087,413,34
CFGRRADPDGI,–,–,–,–,–,0.040,0.030,0.035,174,13
CFTYRLSDEPSA,–,–,–,–,–,0.039,0.016,0.027,169,7
CFTLRVLDVSAV,100,5,0.017,0.023,0.012,–,–,–,–,–
CFTLRLSQTSV,–,–,–,–,–,0.156,0.160,0.158,682,69
CFSRRLTVGAI,40,6,0.012,0.009,0.014,–,–,–,–,–
FTRGNSTSVLF,51,7,0.014,0.012,0.016,–,–,–,–,–
SAWGNRQIKYY,65,6,0.014,0.015,0.014,–,–,–,–,–
CYGGRTFIYARS,–,–,–,–,–,0.027,0.016,0.021,117,7
CAWGNRYIAYY,–,–,–,–,–,0.078,0.067,0.073,342,29
EIRGALNWVRG,–,–,–,–,–,0.125,0.146,0.136,549,63
CFTGRLSLDSI,–,–,–,–,–,0.031,0.039,0.035,134,17
SSWAQLPCKR,–,–,–,–,–,0.039,0.030,0.035,170,13
TISGGRDYTRG,–,–,–,–,–,0.948,0.935,0.941,4146,403
CYGGQTFIYAWS,–,–,–,–,–,0.026,0.030,0.028,114,13
SAWGNRQIQCY,55,5,0.012,0.013,0.012,–,–,–,–,–
RRDRFDQCVL,33,5,0.010,0.00754,0.012,–,–,–,–,–
GPRNECHSQFQN,–,–,–,–,–,0.092,0.086,0.089,401,37
LRGSYDYQLYFG,–,–,–,–,–,0.013,0.023,0.018,57,10
YIIGSSDYTRG,–,–,–,–,–,0.033,0.039,0.036,146,17
